T1: human MEFLIN protein (human, UniProt O14498 19-428, limits assumed)
T1 construct: In the Western blot the protein and its fragments carried a C-terminal G196 tag and His tag and were expressed in HEK293 cells; also called hMEFLIN; ISLR
T1 sequence (looked up): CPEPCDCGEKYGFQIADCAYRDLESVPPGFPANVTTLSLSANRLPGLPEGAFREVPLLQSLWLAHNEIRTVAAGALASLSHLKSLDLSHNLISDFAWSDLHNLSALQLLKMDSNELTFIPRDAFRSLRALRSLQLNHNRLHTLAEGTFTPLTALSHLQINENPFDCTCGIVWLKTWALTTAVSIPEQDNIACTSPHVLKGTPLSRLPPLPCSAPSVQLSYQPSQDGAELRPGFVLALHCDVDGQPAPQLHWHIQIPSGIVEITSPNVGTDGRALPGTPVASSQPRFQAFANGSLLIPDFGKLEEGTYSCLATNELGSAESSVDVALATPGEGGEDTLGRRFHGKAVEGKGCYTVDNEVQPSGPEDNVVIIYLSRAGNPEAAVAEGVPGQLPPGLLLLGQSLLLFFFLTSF

T2: human MEFLIN expressed on cells (human, UniProt O14498 19-428)
T2 sequence (looked up): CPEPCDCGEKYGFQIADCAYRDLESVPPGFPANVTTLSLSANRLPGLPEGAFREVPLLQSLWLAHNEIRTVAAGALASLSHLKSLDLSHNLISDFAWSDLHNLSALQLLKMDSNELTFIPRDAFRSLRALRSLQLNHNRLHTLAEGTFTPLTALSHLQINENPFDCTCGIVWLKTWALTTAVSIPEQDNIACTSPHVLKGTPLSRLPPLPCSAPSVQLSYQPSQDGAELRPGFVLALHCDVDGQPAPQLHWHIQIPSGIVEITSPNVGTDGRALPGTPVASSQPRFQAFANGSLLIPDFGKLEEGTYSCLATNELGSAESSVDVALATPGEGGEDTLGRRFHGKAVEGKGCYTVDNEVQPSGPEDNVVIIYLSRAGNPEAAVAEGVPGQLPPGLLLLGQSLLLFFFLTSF

B1: 27-8 antibody (antibody, V domains shown)
VH: VQLTESGPGLVKPSQSLSLTCSVTGYTITSGYDWSWIRKFPGNKMEWMGYITYSGSTNYNPSLKSRISITRDTSKNQFFLQLNSVTTEDTATYYCSRDIAAISFAYWGQGTLVTVSS
VL: DVVMTQTPVAQPVTLGDQASISCRSSQSLVHSNGNTYLEWYLQKPGQSPQLLIYKVSNRFSGVPDRFIGSGSGSDFTLKISRVEPEDLGVYYCFQATHVPLTFGSGTKLEIK
notes: Rat hybridoma monoclonal antibody; used as hybridoma culture supernatant; also called clone 27-8
B2: 46-3 antibody (antibody, V domains shown)
VH: VQLKESGPGLVKPSQSLSLTCSVTGYTITSGYDWSWIRKFPGNKMEWMGFITYSGSTHHNPSLKSRISITRDTSRNQFFLQLNSVTTEDSATYYCARDFSGISFAYWGQGTLVSVSS
VL: DVVLTQTPVAQPVTLGDQVSISCRSSQSLVHSNGNTYLEWYLQKPGQSPQLLIYKVSNRFSGVPDRFIGSGSGSDFTLKISRVEPEDLGIYYCFQATHDPLTFGSGTKLEIK
notes: Rat hybridoma monoclonal antibody; used as hybridoma culture supernatant; also called clone 46-3
B3: 32-1 antibody (antibody, V domains shown)
VH: VQLQQSGGDLVKPGGSLKLSCAASGFTFSSYGMSWVRQTPDKRLEWVATISSGGSYTYYPDSVKGRFTISRDNAKNTLYLQMSSLKSEDTAMYYCVIDYDVMDYWGQGTSVTVSS
VL: DIVMTQTPSSLAVSAGEKVTMSCKSSQSLLNSRTRKNYLAWYQQKPGQSPKLLIYWASTRESGVPDRFTGSGSGTDFTLTISSVQAEDLAVYYCKQSYNLRTFGGGTKLEIK
notes: Mouse hybridoma monoclonal antibody; used as hybridoma culture supernatant; also called clone 32-1
B4: 35-9 antibody (antibody, V domains shown)
VH: QVQLTESGPGLVQPSQTLSLTCTVSGFSLSSYGVIWVRQPPGKGLEWMGVIWGNGNTNYNSTLKSRLSISRDTSKSQVFLKMNILQTEDTAMYFCARWESGDYWGQGVTVTVSS
VL: DVVMTQTPVSLSVAVGQPASISCTSSQSLVGSGGKTYLNWFLQRPGQSPKRLISLVSKLDSGIPDRFSGSGSETDFTLKISRVEADDLGVYYCLQGTHFPWTFGGGTKQELK
notes: Rat hybridoma monoclonal antibody; used as hybridoma culture supernatant; also called clone 35-9
B5: 27-7 antibody (antibody, V domains shown)
VH: EVQLVESGGSLVQPGGSLKLSCVASGYTFSKYWMDWVRQTPGKSLEWIGEINTDGSKTNYAPSIKDRFTISRDNAKSTLYLQMSNVKSDDTAIYYCTNWEDYWGQGVMVTVSS
VL: DVVMTQTPPSLSVAIGQSVSISCKSSQSLVYSDGKTYLHWLLQSSGRSPKRLIYQVSNLDSGVPDRFSGTGSQKDFTLKISRVEAKDLGVYYCAQTTHFPYTFGAGTKLELK
notes: Rat hybridoma monoclonal antibody; used as hybridoma culture supernatant; also called clone 27-7
B6: 11-8 antibody (antibody, V domains shown)
VH: VQLQESGPELVKPGASVKISCKASGYSFTDYIILWVKQSHGKSLEWIGNINPYSGNTRYNLKFKGKATLTVDKSSSTAYMQLNSLTSEDSAVYYCARDGDDYAMDYWGQGTSVTVSS
VL: DIVITQTPLSLPVSLGDQASISCRSSQSIVHSNGNTYLEWYLQKPGQSPRLLIYKVSNRFSGVPDRFSGSGSGTDFTLKISRVETEDLGVYYCFQGSHVPWTFGGGTKLEIK
notes: Mouse hybridoma monoclonal antibody; used as hybridoma culture supernatant; also called clone 11-8
B7: 34-4 antibody (antibody, V domains shown)
VH: QVQLMESGPGLVQPSQTLSLTCTVSGFSLTSYDMHWVRQPPGKGLEWMGVIWGNGNTHYNSALKSRLSISRDTSKSQVFLKMNSLQTENTAIYFCTGGYFYWGQGVTVTVSS
VL: DVVMTQTPVSLSVAIGHPASISCKSSQSLVGTGGKTYLSWLLQRPGQSPKRLIYLVSKLDSGIPDRFSGSGSETDFTLKISRVEADDLGVYYCLQGTHFPFTFGSGTQLEMK
notes: Rat hybridoma monoclonal antibody; used as hybridoma culture supernatant; also called clone 34-4
B8: ADC27-7 (other, DAR 2.4)
VH: EVQLVESGGSLVQPGGSLKLSCVASGYTFSKYWMDWVRQTPGKSLEWIGEINTDGSKTNYAPSIKDRFTISRDNAKSTLYLQMSNVKSDDTAIYYCTNWEDYWGQGVMVTVSS
VL: DVVMTQTPPSLSVAIGQSVSISCKSSQSLVYSDGKTYLHWLLQSSGRSPKRLIYQVSNLDSGVPDRFSGTGSQKDFTLKISRVEAKDLGVYYCAQTTHFPYTFGAGTKLELK
modifications: MMAE drug-linker on cysteine thiols exposed by DTT reduction (positions not stated)

The first test addresses T1, human MEFLIN protein. Kind of test: Western blotting on tagged human MEFLIN fragments. As for the experimental part:
The human embryonic kidney (HEK293) cell line was allowed to transiently express pRP-CMV vector having an insert of DNA encoding the human MEFLIN protein or a fragment thereof by lipofection, and a cell lysate was prepared. […] SDS-PAGE was performed using the cell lysate, and the electrophoresed protein was transferred to a PVDF membrane. The PVDF membrane was reacted at ordinary temperature for 1 hour using 5% skimmed milk/PBS. The primary antibody used was a culture supernatant of each hybridoma clone diluted 50-fold with PBS. For a positive subject, an anti-G196 antibody was used as a primary antibody. The PVDF membrane was reacted overnight at 4° C. in the presence of the primary antibody. Then, the PVDF membrane was washed with 0.05% Tween/PBS. The secondary antibody used was an anti-rat or anti-mouse antibody-horseradish peroxidase (HRP) conjugate. The secondary antibody was diluted 1000-fold with PBS and reacted with the PVDF membrane at ordinary temperature for 45 minutes. After washing with 0.05% Tween/PBS, the HRP label on the antibody was allowed to emit light using ECL (GE Healthcare Japan Corp.), and an image was captured into a computer using a CCD imager (Las 4000, GE Healthcare Japan Corp.).
With B1, the binding result is reported as “binds”. Consider B2, for which the binding result is listed as “binds”.

Turning to B3, the binding result is “binds”. Regarding B4, the binding result was “binds”. Take B5: the binding result is “binds”. B6: the binding result is on record as “binds”.

Regarding B7, the binding result is on record as “binds”.

The target of the next test is T2, human MEFLIN expressed on cells. Kind of test: cell-based or functional assay.
B8: the “EC50 of cell proliferation inhibition (MTT test)” value was determined as 0.72 nM.
